Molecular target: human CD33 on the cell surface of human monocytes / myeloid cells (human) (UniProt P20138)
Assay: cell-based or functional assay

Chain of human CD33 on the cell surface of human monocytes / myeloid cells (human) (P20138 18-364 limits assumed): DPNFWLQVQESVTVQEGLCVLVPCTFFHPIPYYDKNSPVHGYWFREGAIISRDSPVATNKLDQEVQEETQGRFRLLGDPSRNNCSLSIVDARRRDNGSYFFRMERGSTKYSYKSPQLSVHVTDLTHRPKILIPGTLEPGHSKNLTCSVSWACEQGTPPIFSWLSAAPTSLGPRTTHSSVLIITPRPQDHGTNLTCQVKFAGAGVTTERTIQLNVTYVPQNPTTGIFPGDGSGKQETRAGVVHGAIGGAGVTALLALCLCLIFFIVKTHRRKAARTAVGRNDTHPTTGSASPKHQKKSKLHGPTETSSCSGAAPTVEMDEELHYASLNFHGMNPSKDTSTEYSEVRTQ

## Gemtuzumab (hIgG4PAA) (antibody)
  % Internalization: 50.5%
